Experimental data as given in patent US20200231671A1 (E R SQUIBB AND SONS L L C, published 2020).
Where a chain is given by its changes, count along the chain named. One block for each binder: values may come before it. Where no end group is shown, it is not given here.

Columns and labels:
[1] = target: T1, mouse LAG-3 (cell surface, 3A9 mouse T cell hybridoma) (mouse, UniProt Q61790 24-521); experiment: flow cytometry, 3A9 cells transfected with mouse LAG-3
T1 construct: whole, on cells; also called mLAG-3
T1 sequence (looked up): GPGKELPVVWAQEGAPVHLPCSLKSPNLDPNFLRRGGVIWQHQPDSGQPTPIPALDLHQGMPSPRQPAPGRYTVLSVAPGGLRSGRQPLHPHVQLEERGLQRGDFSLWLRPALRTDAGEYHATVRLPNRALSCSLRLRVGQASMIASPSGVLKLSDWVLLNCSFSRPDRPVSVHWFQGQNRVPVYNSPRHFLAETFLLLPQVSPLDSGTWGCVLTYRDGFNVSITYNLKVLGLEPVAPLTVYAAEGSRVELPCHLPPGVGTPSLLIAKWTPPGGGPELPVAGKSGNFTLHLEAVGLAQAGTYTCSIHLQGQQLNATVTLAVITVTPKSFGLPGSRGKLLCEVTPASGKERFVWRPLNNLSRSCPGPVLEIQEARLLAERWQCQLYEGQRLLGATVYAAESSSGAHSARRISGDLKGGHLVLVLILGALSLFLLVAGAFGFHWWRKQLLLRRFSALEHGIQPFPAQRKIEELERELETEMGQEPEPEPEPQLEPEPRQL
Description: To determine whether the antibodies cross-reacted with mouse LAG-3, similar flow cytometry studies to those described above were performed using as the target cell a mouse T cell hybridoma cell line (3A9) that had been transfected to express mouse LAG-3 on its cell surface, followed by FACS analysis to detect antibody binding.

[2] = target: T2, human LAG-3 full-length extra loop peptide (human, conjugated to biotin); experiment: ELISA on human full-length extra loop peptide
T2 construct: Exposed extra loop of the immunoglobulin-like first extracellular domain of LAG-3; also called LAG-3 extra loop
T2 peptide: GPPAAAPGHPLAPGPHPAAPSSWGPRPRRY
Description: To further examine binding of these antibodies to the extra loop peptide region, additional ELISA assays were performed. In an ELISA assay using the human full-length extra loop peptide (SEQ ID NO: 79), EC₅₀ values for binding were determined for 25E3, 25F7 and 8B7. Additionally, a similar peptide ELISA was conducted using the full length extra loop peptide sequence from rhesus monkey LAG-3, having the sequence […] (SEQ ID NO: 90), and EC₅₀ values for binding were determined for 25F7 and 8B7. […] Moreover, antibodies 25F7 and 8B7 also bind to the rhesus LAG-3 extra loop peptide region, albeit less well compared to the human sequence, which may be due to the species sequence divergence in this polypeptide. The results also confirm that the 26H10 antibody is not capable of recognizing the LAG-3 extra loop peptide.

[3] = target: T3, LAG-3 extra loop scan peptide PHPAAPSSWGPR (human, also: conjugated to biotin); experiment: peptide scan ELISA
T3 construct: 12-mer overlapping scan peptide of the extra loop
T3 peptide: PHPAAPSSWGPR
Description: (§1) In the LAG-3 protein, the immunoglobulin-like first domain of the extracellular region contains an exposed “extra loop” having the amino acid sequence: […] (SEQ ID NO: 79). To examine the binding of 25E3, 25F7, 8B7 and 26H10 to this region of LAG-3, and map the epitope bound by each antibody, a peptide scan experiment was performed across this region. A series of 10 overlapping peptides that scanned across the full length of the extra loop sequence were prepared and conjugated to biotin. For ELISA analysis, microtiter plates pre-coated with streptavidin (Sigma-Aldrich, Cat # M5432) were used to capture the biotinylated loop peptide-conjugates applied in a 100 μl volume at a concentration of 2 μg/mL and incubated 18 hours at 4° C., after which the plates were washed 3 times and blocked at room temperature for 1 hour with blocking buffer (1×PBS+10% FBS). Next, human anti-LAG-3 antibodies serially diluted 3-fold in blocking buffer from 10 μg/mL were applied and the plates were incubated at room temperature for 2 hours and then washed three times. To detect bound human antibody a HRP-conjugated goat anti-human kappa light chain antibody (Bethyl Laboratories, Cat # A80-115P) was diluted to 1 μg/mL in blocking buffer and applied to assay wells for 1 hour followed by three washes and application of TMB substrate (eBioscience, Cat #00-4201-56). Optical density readings at 650 nm wavelength were made on a Spectramax 340PC spectrophotometer ([…].).

[4] = target: T4, LAG-3 extra loop scan peptide PAAPSSWGPRPR (human, also: conjugated to biotin); experiment: peptide scan ELISA
T4 construct: 12-mer overlapping scan peptide of the extra loop
T4 peptide: PAAPSSWGPRPR
Description: as §1

[5] = target: T5, LAG-3 extra loop scan peptide PGPHPAAPSSWG (human, also: conjugated to biotin); experiment: peptide scan ELISA
T5 construct: 12-mer overlapping scan peptide of the extra loop
T5 peptide: PGPHPAAPSSWG
Description: as §1

[6] = target: T6, cynomolgus monkey LAG-3 on activated cynomolgus monkey T cells (cynomolgus monkey); experiment: flow cytometry, activated cynomolgus CD4+ T cells
T6 construct: whole, on cells
Description: To test the ability of the antibodies to bind to native human LAG-3 on the surface of activated human T cells, resting CD4⁺ T cells were isolated from purified peripheral blood mononuclear cells and subjected to three days of stimulation with a combination of anti-CD3 and anti-CD28 antibodies affixed to polystyrene beads. The 25F7, 8B7 and 26H10 monoclonal antibodies were serially diluted with cold 1×PFAE buffer (1×PBS+2% FBS, 0.02% sodium azide, 2 mM Na EDTA). For the binding reaction, 50 μl of diluted antibody solution was mixed with 50 μl of PE-labeled anti-human CD4 (BD Bioscience, Cat # 555347). Activated T cells were processed by the same protocol described above. The analysis of antibody binding was conducted as described above.
In a separate experiment, the antibodies were tested for binding to cynomolgus monkey LAG-3 using activated cynomolgus monkey T cells. In vitro activation of these monkey T cells was achieved through anti-CD³/anti-CD28 treatment of the T cells by essentially the same protocol described above for the in vitro activation of human T cells, followed by flow cytometry analysis performed as described above for staining of in vitro activated human CD4⁺ T cells.

- binding result [1]: no binding
- EC50 [2]: 0.55 nM
B1: 25E3 human monoclonal antibody (antibody, IgG1, V domains shown)
VH: EVQLVESGGGVVRPGGSLRLSCAASGFTFDDYGMSWVRQAPGKGLEWVSGINWNGGSTYYADSVKGRFTISGDNAKNSLYLQMNSLRAEDTALYYCTTGGYWGQGTLVTVSS
VL: AIQLTQSPSSLSASVGDRVTITCRASQGIRSALAWYQQKPGKAPKLLIYDASSLESGVPSRFSGSGSGTDFTLTISSLQPEDFATYYCQQFNSYPYTFGQGTKLEIK

- binding result [1]: no binding
- EC50 [2]: 0.29 to 0.95 nM
- binding result [3]: binds
- binding result [4]: binds
- binding result [5]: binds
- EC50 [6]: 14.2 nM
B2: 25F7 human monoclonal antibody (antibody, IgG1, V domains shown)
VH: QVQLQQWGAGLLKPSETLSLTCAVYGGSFSDYYWNWIRQPPGKGLEWIGEINHNGNTNSNPSLKSRVTLSLDTSKNQFSLKLRSVTAADTAVYYCAFGYSDYEYNWFDPWGQGTLVTVSS
VL: EIVLTQSPATLSLSPGERATLSCRASQSISSYLAWYQQKPGQAPRLLIYDASNRATGIPARFSGSGSGTDFTLTISSLEPEDFAVYYCQQRSNWPLTFGQGTNLEIK
notes: also called 25F7-FITC (IgG1 version)

- binding result [1]: no binding
- EC50 [2]: 0.28 to 1.35 nM
- binding result [3]: binds
- binding result [4]: binds
- binding result [5]: binds
- EC50 [6]: 30.4 nM
B3: 8B7 human monoclonal antibody (antibody, IgG4, V domains shown)
VH: QVQLQQWGAGLLKPSETLSLTCAVYGGSFSGYYWSWIRQPPGKGLEWIGEINHRGNTNCNPSLKSRVTISGDTSKKQFALKLNSVTAADTAVYYCARGYDILTGYYEDSWGPGTLVTVSS
VL: B2 VL with I29V, D50N, Q100G, N103K, L104V
notes: also called 8B7-FITC

- binding result [1]: no binding
- binding result [2]: no binding
- binding result [3]: no binding (tested: 10 µg/mL)
- binding result [4]: no binding (tested: 10 µg/mL)
- binding result [5]: no binding (tested: 10 µg/mL)
- EC50 [6]: 5.19 nM
B4: 26H10 human monoclonal antibody (antibody, IgG1, V domains shown)
VH: QVQLVESGGGVVQPGRSLRLSCAASGFTFSSYGMHWVRQAPGKGLEWVAVIWYDGSNKYYADSVKGRFTISRDNSKNTLYLQMNSLRAEDTAVYYCAREWAVASWDYGMDVWGQGTTVTVSS
VL: not shown
notes: also called 26H10-FITC
